Results from IntAct's records for PubMed 15744307.

B1: Short transient receptor potential channel 3 (Homo sapiens), Q13507 (parent)
chain: MSTKVRKCKEQARVTFPAPEEEEDEGEDEGAEPQRRRRGWRGVNGGLEPRSAPSQREPHGYCPPPFSHGPDLSMEGSPSLRRMTVMREKGRRQAVRGPAFMFNDRGTSLTAEEERFLDAAEYGNIPVVRKMLEESKTLNVNCVDYMGQNALQLAVGNEHLEVTELLLKKENLARIGDALLLAISKGYVRIVEAILNHPGFAASKRLTLSPCEQELQDDDFYAYDEDGTRFSPDITPIILAAHCQKYEVVHMLLMKGARIERPHDYFCKCGDCMEKQRHDSFSHSRSRINAYKGLASPAYLSLSSEDPVLTALELSNELAKLANIEKEFKNDYRKLSMQCKDFVVGVLDLCRDSEEVEAILNGDLESAEPLEVHRHKASLSRVKLAIKYEVKKFVAHPNCQQQLLTIWYENLSGLREQTIAIKCLVVLVVALGLPFLAIGYWIAPCSRLGKILRSPFMKFVAHAASFIIFLGLLVFNASDRFEGITTLPNITVTDYPKQIFRVKTTQFTWTEMLIMVWVLGMMWSECKELWLEGPREYILQLWNVLDFGMLSIFIAAFTARFLAFLQATKAQQYVDSYVQESDLSEVTLPPEIQYFTYARDKWLPSDPQIISEGLYAIAVVLSFSRIAYILPANESFGPLQISLGRTVKDIFKFMVLFIMVFFAFMIGMFILYSYYLGAKVNAAFTTVEESFKTLFWSIFGLSEVTSVVLKYDHKFIENIGYVLYGIYNVTMVVVLLNMLIAMINSSYQEIEDDSDVEWKFARSKLWLSYFDDGKTLPPPFSLVPSPKSFVYFIMRIVNFPKCRRRRLQKDIEMGMGNSKSRLNLFTQSNSRVFESHSFNSILNQPTRYQQIMKRLIKRYVLKAQVDKENDEVNEGELKEIKQDISSLRYELLEDKSQATEELAILIHKLSEKLNPSMLRCE
partner: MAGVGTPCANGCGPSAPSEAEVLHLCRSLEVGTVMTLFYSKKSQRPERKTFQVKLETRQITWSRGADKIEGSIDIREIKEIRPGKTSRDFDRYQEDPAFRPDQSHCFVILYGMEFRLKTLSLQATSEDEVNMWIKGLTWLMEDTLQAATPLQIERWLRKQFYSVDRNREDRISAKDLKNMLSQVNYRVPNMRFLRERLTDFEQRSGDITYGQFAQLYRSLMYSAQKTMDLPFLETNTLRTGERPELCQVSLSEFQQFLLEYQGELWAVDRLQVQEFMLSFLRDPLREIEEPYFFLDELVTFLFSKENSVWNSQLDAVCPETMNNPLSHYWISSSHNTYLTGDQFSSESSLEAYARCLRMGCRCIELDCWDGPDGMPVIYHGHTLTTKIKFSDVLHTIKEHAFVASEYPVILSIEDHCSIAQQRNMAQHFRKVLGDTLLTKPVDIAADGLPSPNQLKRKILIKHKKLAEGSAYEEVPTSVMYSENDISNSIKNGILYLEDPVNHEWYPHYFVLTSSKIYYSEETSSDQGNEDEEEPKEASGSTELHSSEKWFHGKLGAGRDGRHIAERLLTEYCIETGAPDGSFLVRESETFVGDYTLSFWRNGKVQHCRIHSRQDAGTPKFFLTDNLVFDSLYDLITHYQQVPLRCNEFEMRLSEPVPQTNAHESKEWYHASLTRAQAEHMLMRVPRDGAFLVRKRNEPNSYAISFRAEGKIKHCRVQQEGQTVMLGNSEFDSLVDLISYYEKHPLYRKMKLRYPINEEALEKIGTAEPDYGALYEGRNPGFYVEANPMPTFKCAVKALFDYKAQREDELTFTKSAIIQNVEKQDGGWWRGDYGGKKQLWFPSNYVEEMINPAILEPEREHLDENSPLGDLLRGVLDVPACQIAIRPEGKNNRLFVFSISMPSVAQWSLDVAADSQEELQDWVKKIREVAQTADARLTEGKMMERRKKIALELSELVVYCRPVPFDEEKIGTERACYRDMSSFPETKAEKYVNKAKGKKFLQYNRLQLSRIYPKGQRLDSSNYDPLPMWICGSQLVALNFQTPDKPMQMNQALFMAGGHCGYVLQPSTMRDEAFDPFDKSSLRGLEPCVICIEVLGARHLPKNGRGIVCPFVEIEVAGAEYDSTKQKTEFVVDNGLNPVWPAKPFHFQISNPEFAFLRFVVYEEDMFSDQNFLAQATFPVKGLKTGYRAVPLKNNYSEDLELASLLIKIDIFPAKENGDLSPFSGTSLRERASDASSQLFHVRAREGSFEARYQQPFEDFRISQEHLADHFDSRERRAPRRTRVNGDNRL

Variants of: B1
Conditions: with plcg1_rat Plcg1, P10686

Variant | effect of a mutation on the interaction
L117A | decreasing interaction
F116A | decreasing interaction
E113A | decreasing interaction
